Biological target: 92UG037.8-gp140-Fd (HIV-1 primary isolate 92UG037.8 (clade A))
Test: surface plasmon resonance

**Q.** With monoclonal antibody (mAb) 2G12 as the substance, how does the Kd read?
**A.** 17.9 nM
